# Assay results published in publication PMC5137437.
# Read-outs that look alike come from different tables or passages of the source.
# B1: 5mCpG hemimethylated FP probe (dsDNA)
# DNA 1: GAGGCGTGGC
# DNA 2: TTGCCACGCCTC
# modifications: 5mC at position 5 of strand 1; strand 2 unmethylated
# B2: TpG/5mCpA crystal duplex (dsDNA)
# DNA 1: GAGGTGTGGC
# DNA 2: GCCACACCTC
# modifications: 5mC at position 5 of strand 2
# B3: 5mCpG/5mCpG crystal duplex (dsDNA)
# DNA 1: GAGGCGTGGC
# DNA 2: GCCACGCCTC
# modifications: 5mC at position 5 of strand 1 and position 5 of strand 2
# B4: TpG crystal duplex (E446P complex) (dsDNA)
# DNA 1: GAGGTGTGGC
# DNA 2: GCCACACCTC
# modifications: methylation of the opposite-strand CpA not stated in the material
# B5: CpG/CpG crystal duplex (dsDNA)
# DNA 1: GAGGCGTGGC
# DNA 2: GCCACGCCTC
# B6: TpG FP probe (dsDNA)
# DNA 1: GAGGTGTGGC
# DNA 2: TTGCCACACCTC
# B7: CpG unmodified FP probe (dsDNA)
# DNA 1: GAGGCGTGGC
# DNA 2: TTGCCACGCCTC
# B8: TpG/CpA crystal duplex (dsDNA)
# DNA 1: GAGGTGTGGC
# DNA 2: GCCACACCTC
# How the values were obtained:
# Klf4 ZnF1-3 WT (E446) [1] = target: T1, Klf4 ZnF1-3 WT (E446) (Mus musculus, UniProt Q60793 396-483); assay: fluorescence polarization
# Klf4 ZnF1-3 E446P [2] = target: T2, Klf4 ZnF1-3 E446P (Mus musculus, UniProt Q60793 396-483, E446P); assay: fluorescence polarization
# Klf4 ZnF1-3 WT (E446) [3] = target: T1, Klf4 ZnF1-3 WT (E446); assay: X-ray crystallography
# Klf4 ZnF1-3 E446P [4] = target: T2, Klf4 ZnF1-3 E446P; assay: X-ray crystallography
# Klf4 ZnF1-3 E446P [5] = target: T2, Klf4 ZnF1-3 E446P; assay: X-ray crystallography; remark: listed apart in the source
# Klf4 ZnF1-3 E446D = Klf4 ZnF1-3 E446D (Mus musculus, UniProt Q60793 396-483, E446D); assay: X-ray crystallography
# Klf4 ZnF1-3 WT (E446) [6] = target: T1, Klf4 ZnF1-3 WT (E446); assay: fluorescence polarization; remark: listed apart in the source
# Klf4 ZnF1-3 E446P [7] = target: T2, Klf4 ZnF1-3 E446P; assay: fluorescence polarization; remark: listed apart in the source
# Klf4 ZnF1-3 WT (E446) [8] = target: T1, Klf4 ZnF1-3 WT (E446); assay: X-ray crystallography; remark: listed apart in the source
# T1 sequence (Q60793 396-483): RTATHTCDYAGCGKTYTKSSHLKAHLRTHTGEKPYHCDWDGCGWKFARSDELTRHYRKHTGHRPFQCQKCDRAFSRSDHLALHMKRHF
# T2 sequence (Q60793 396-483 E446P): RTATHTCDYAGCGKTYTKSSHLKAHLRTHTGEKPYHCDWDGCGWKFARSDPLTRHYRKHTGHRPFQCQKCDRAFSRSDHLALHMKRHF
# Klf4 ZnF1-3 E446D, sequence (Q60793 396-483 E446D): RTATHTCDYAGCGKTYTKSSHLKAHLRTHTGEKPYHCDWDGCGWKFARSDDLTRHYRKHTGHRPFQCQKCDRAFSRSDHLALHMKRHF
binder,measurement,setting,value
B1,binding signal,Klf4 ZnF1-3 WT (E446) [1],1.5 fold tighter than P1 with N1
same,Kd,Klf4 ZnF1-3 E446P [2],< 5 nM
B2,binding result,Klf4 ZnF1-3 WT (E446) [3],binds
B3,binding result,Klf4 ZnF1-3 E446P [4],binds
B4,binding result,Klf4 ZnF1-3 E446P [5],binds
B5,binding result,Klf4 ZnF1-3 E446D,binds
B6,binding result,Klf4 ZnF1-3 WT (E446) [6],binds
B7,binding signal,Klf4 ZnF1-3 E446P [7],~4 fold tighter than P1 with N1
B8,binding result,Klf4 ZnF1-3 WT (E446) [8],binds
